Measurements as given in US20160213760A1.

Molecular target: human epidermal growth factor 2 (HER2)/neu receptor (human) (UniProt P04626)
Assay: cell-based or functional assay

protein conjugate H43 (ANG4043; trastuzumab conjugated to Angiopep-2) (antibody)
IC50 of BT-474 cell proliferation (tritiated thymidine incorporation after 5-day treatment): 3.16 nM
